This passage reports Kd results from publication PMC10786891, “Massively parallel profiling of RNA-targeting CRISPR-Cas13d”.

T1: EsCas13d, nuclease-dead (Eubacterium siraeum, UniProt B0MS50, R295A;H300A;R849A;H854A)
T1 sequence: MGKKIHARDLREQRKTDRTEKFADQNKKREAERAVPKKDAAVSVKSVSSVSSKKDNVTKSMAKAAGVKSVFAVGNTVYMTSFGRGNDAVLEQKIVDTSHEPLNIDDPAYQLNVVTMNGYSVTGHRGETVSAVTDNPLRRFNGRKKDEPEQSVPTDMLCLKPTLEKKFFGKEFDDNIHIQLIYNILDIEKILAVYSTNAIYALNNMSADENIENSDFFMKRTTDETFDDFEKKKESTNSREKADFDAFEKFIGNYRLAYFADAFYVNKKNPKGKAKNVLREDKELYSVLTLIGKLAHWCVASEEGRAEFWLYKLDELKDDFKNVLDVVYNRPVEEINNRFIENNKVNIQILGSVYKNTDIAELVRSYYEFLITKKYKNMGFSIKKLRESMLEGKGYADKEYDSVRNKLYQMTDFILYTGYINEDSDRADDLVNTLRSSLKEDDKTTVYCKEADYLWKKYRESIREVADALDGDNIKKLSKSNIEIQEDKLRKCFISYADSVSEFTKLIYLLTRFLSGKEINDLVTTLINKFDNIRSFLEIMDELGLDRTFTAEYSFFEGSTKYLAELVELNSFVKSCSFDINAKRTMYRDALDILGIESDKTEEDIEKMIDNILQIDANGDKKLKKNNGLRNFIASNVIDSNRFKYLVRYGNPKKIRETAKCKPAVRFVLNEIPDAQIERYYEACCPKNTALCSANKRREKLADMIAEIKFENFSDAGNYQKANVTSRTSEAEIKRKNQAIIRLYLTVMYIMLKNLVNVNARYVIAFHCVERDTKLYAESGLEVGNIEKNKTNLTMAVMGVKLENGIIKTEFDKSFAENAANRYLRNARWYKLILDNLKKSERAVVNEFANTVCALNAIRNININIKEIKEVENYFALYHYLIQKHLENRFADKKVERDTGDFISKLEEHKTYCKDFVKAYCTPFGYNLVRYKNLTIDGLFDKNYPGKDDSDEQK

B1: target 1 insU 3' of 9,insU 3' of 2 (mixed)
RNA 1: CACCCGUGCAAAAAUGCAGGGGUCUAAAACUGAGCGGAUAACCUCUCUAUGG
RNA 2: GGGAAUGGAUCCACAUCUACGAAUUCGUACCAUAGAGAGGUUAUUCCGCUCUACCGAGAUCGGAAGAGCACACGU
B2: target 1 C7G,U10G (mixed)
RNA 1: CACCCGUGCAAAAAUGCAGGGGUCUAAAACUGAGCGGAUAACCUCUCUAUGG
RNA 2: GGGAAUGGAUCCACAUCUACGAAUUCGUACCAUAGAGAGGUGAUGCGCUCACCGAGAUCGGAAGAGCACACGU
B3: target 1 insU 3' of 17,insU 3' of 1 (mixed)
RNA 1: CACCCGUGCAAAAAUGCAGGGGUCUAAAACUGAGCGGAUAACCUCUCUAUGG
RNA 2: GGGAAUGGAUCCACAUCUACGAAUUCGUACCAUAGUAGAGGUUAUCCGCUCAUCCGAGAUCGGAAGAGCACACGU
B4: target 1 C6A,A9G (mixed)
RNA 1: CACCCGUGCAAAAAUGCAGGGGUCUAAAACUGAGCGGAUAACCUCUCUAUGG
RNA 2: GGGAAUGGAUCCACAUCUACGAAUUCGUACCAUAGAGAGGUUGUCAGCUCACCGAGAUCGGAAGAGCACACGU
B5: target 1 A1C,A20C (mixed)
RNA 1: CACCCGUGCAAAAAUGCAGGGGUCUAAAACUGAGCGGAUAACCUCUCUAUGG
RNA 2: GGGAAUGGAUCCACAUCUACGAAUUCGUACCCUAGAGAGGUUAUCCGCUCCCCGAGAUCGGAAGAGCACACGU
B6: target 1 A1U,A18C (mixed)
RNA 1: CACCCGUGCAAAAAUGCAGGGGUCUAAAACUGAGCGGAUAACCUCUCUAUGG
RNA 2: GGGAAUGGAUCCACAUCUACGAAUUCGUACCAUCGAGAGGUUAUCCGCUCUCCGAGAUCGGAAGAGCACACGU
B7: target 1 insC 3' of 20,insU 3' of 6 (mixed)
RNA 1: CACCCGUGCAAAAAUGCAGGGGUCUAAAACUGAGCGGAUAACCUCUCUAUGG
RNA 2: GGGAAUGGAUCCACAUCUACGAAUUCGUACCACUAGAGAGGUUAUCCUGCUCACCGAGAUCGGAAGAGCACACGU
B8: target 1 G5A,G13C (mixed)
RNA 1: CACCCGUGCAAAAAUGCAGGGGUCUAAAACUGAGCGGAUAACCUCUCUAUGG
RNA 2: GGGAAUGGAUCCACAUCUACGAAUUCGUACCAUAGAGACGUUAUCCACUCACCGAGAUCGGAAGAGCACACGU
B9: target 1 insC 3' of 10,insG 3' of 2 (mixed)
RNA 1: CACCCGUGCAAAAAUGCAGGGGUCUAAAACUGAGCGGAUAACCUCUCUAUGG
RNA 2: GGGAAUGGAUCCACAUCUACGAAUUCGUACCAUAGAGAGGUUCAUCCGCUCGACCGAGAUCGGAAGAGCACACGU
B10: target 1 insU 3' of 6,insU 3' of 4 (mixed)
RNA 1: CACCCGUGCAAAAAUGCAGGGGUCUAAAACUGAGCGGAUAACCUCUCUAUGG
RNA 2: GGGAAUGGAUCCACAUCUACGAAUUCGUACCAUAGAGAGGUUAUCCUGCUUCACCGAGAUCGGAAGAGCACACGU
B11: target 1 insU 3' of 13,insC 3' of 8 (mixed)
RNA 1: CACCCGUGCAAAAAUGCAGGGGUCUAAAACUGAGCGGAUAACCUCUCUAUGG
RNA 2: GGGAAUGGAUCCACAUCUACGAAUUCGUACCAUAGAGAGUGUUAUCCCGCUCACCGAGAUCGGAAGAGCACACGU
B12: target 1 U3A,U10A (mixed)
RNA 1: CACCCGUGCAAAAAUGCAGGGGUCUAAAACUGAGCGGAUAACCUCUCUAUGG
RNA 2: GGGAAUGGAUCCACAUCUACGAAUUCGUACCAUAGAGAGGUAAUCCGCACACCGAGAUCGGAAGAGCACACGU
B13: target 1 insU 3' of 13,insG 3' of 4 (mixed)
RNA 1: CACCCGUGCAAAAAUGCAGGGGUCUAAAACUGAGCGGAUAACCUCUCUAUGG
RNA 2: GGGAAUGGAUCCACAUCUACGAAUUCGUACCAUAGAGAGUGUUAUCCGCGUCACCGAGAUCGGAAGAGCACACGU
B14: target 1 A16G,C21U (mixed)
RNA 1: CACCCGUGCAAAAAUGCAGGGGUCUAAAACUGAGCGGAUAACCUCUCUAUGG
RNA 2: GGGAAUGGAUCCACAUCUACGAAUUCGUACUAUAGGGAGGUUAUCCGCUCACCGAGAUCGGAAGAGCACACGU
B15: target 1 A1G,A18C (mixed)
RNA 1: CACCCGUGCAAAAAUGCAGGGGUCUAAAACUGAGCGGAUAACCUCUCUAUGG
RNA 2: GGGAAUGGAUCCACAUCUACGAAUUCGUACCAUCGAGAGGUUAUCCGCUCGCCGAGAUCGGAAGAGCACACGU
B16: target 1 insC 3' of 11,insU 3' of 1 (mixed)
RNA 1: CACCCGUGCAAAAAUGCAGGGGUCUAAAACUGAGCGGAUAACCUCUCUAUGG
RNA 2: GGGAAUGGAUCCACAUCUACGAAUUCGUACCAUAGAGAGGUCUAUCCGCUCAUCCGAGAUCGGAAGAGCACACGU
B17: target 1 C4G,A16C (mixed)
RNA 1: CACCCGUGCAAAAAUGCAGGGGUCUAAAACUGAGCGGAUAACCUCUCUAUGG
RNA 2: GGGAAUGGAUCCACAUCUACGAAUUCGUACCAUAGCGAGGUUAUCCGGUCACCGAGAUCGGAAGAGCACACGU
B18: target 1 A1C,A18C (mixed)
RNA 1: CACCCGUGCAAAAAUGCAGGGGUCUAAAACUGAGCGGAUAACCUCUCUAUGG
RNA 2: GGGAAUGGAUCCACAUCUACGAAUUCGUACCAUCGAGAGGUUAUCCGCUCCCCGAGAUCGGAAGAGCACACGU
B19: target 1 insU 3' of 18,insU 3' of 17 (mixed)
RNA 1: CACCCGUGCAAAAAUGCAGGGGUCUAAAACUGAGCGGAUAACCUCUCUAUGG
RNA 2: GGGAAUGGAUCCACAUCUACGAAUUCGUACCAUAUGUAGAGGUUAUCCGCUCACCGAGAUCGGAAGAGCACACGU
B20: target 1 C6G,A18C (mixed)
RNA 1: CACCCGUGCAAAAAUGCAGGGGUCUAAAACUGAGCGGAUAACCUCUCUAUGG
RNA 2: GGGAAUGGAUCCACAUCUACGAAUUCGUACCAUCGAGAGGUUAUCGGCUCACCGAGAUCGGAAGAGCACACGU
B21: target 1 C7G,A16G (mixed)
RNA 1: CACCCGUGCAAAAAUGCAGGGGUCUAAAACUGAGCGGAUAACCUCUCUAUGG
RNA 2: GGGAAUGGAUCCACAUCUACGAAUUCGUACCAUAGGGAGGUUAUGCGCUCACCGAGAUCGGAAGAGCACACGU
B22: target 1 insC 3' of 10,insC 3' of 9 (mixed)
RNA 1: CACCCGUGCAAAAAUGCAGGGGUCUAAAACUGAGCGGAUAACCUCUCUAUGG
RNA 2: GGGAAUGGAUCCACAUCUACGAAUUCGUACCAUAGAGAGGUUCACUCCGCUCACCGAGAUCGGAAGAGCACACGU
B23: target 1 insA 3' of 7,insG 3' of 1 (mixed)
RNA 1: CACCCGUGCAAAAAUGCAGGGGUCUAAAACUGAGCGGAUAACCUCUCUAUGG
RNA 2: GGGAAUGGAUCCACAUCUACGAAUUCGUACCAUAGAGAGGUUAUCACGCUCAGCCGAGAUCGGAAGAGCACACGU
B24: target 1 C2A,G17A (mixed)
RNA 1: CACCCGUGCAAAAAUGCAGGGGUCUAAAACUGAGCGGAUAACCUCUCUAUGG
RNA 2: GGGAAUGGAUCCACAUCUACGAAUUCGUACCAUAAAGAGGUUAUCCGCUAACCGAGAUCGGAAGAGCACACGU
B25: target 1 A14C,G15A (mixed)
RNA 1: CACCCGUGCAAAAAUGCAGGGGUCUAAAACUGAGCGGAUAACCUCUCUAUGG
RNA 2: GGGAAUGGAUCCACAUCUACGAAUUCGUACCAUAGAACGGUUAUCCGCUCACCGAGAUCGGAAGAGCACACGU
B26: target 1 C4U,G5U (mixed)
RNA 1: CACCCGUGCAAAAAUGCAGGGGUCUAAAACUGAGCGGAUAACCUCUCUAUGG
RNA 2: GGGAAUGGAUCCACAUCUACGAAUUCGUACCAUAGAGAGGUUAUCCUUUCACCGAGAUCGGAAGAGCACACGU
B27: target 1 A18C (mixed)
RNA 1: CACCCGUGCAAAAAUGCAGGGGUCUAAAACUGAGCGGAUAACCUCUCUAUGG
RNA 2: GGGAAUGGAUCCACAUCUACGAAUUCGUACCAUCGAGAGGUUAUCCGCUCACCGAGAUCGGAAGAGCACACGU

This data set deals with T1, EsCas13d, nuclease-dead. The experiment in a line: crRNA (strand 1, pre-loaded); Mg2+; 40 mM Tris-HCl pH 7.5, 150 mM NaCl, 6 mM MgCl2, 1 mM DTT, 0.1% Tween-20, 0.2 mg/ml BSA; 25 C; 10 min per concentration, then washed. As to conditions: tags: His6-TwinStrep-SUMO cleaved; N-terminal SNAP kept (SNAP-Surface 488); label: 3' end held by stalled T7 RNA polymerase.
Turning to B1, binding was characterised by a dissociation constant (Kd) of 20.2 ± 1 nM.
On to B2, for which binding was characterised by a dissociation constant (Kd) of 20 ± 0.8 nM.
As for B3, the figure is 22.4 ± 2.3 nM; as for B4, 11.5 ± 0.6 nM.
Take B5: the Kd (as a rule, the free concentration of one partner at which half of the binding sites on the other are occupied at equilibrium, for simple one-to-one binding) worked out at 32 ± 4 nM.
B6 returned a Kd of 66 ± 12 nM.
For B7, the Kd was 11.3 ± 0.9 nM.
As for B8, the figure is 50 ± 7 nM; as for B9, 24.8 ± 2.1 nM.
B10: the Kd turned out to be 10.3 ± 0.8 nM.
The molecule B11 had an equilibrium dissociation constant (Kd) of 14.7 ± 1.6 nM.
As for B12, the figure is 21.2 ± 2.5 nM; as for B13, 14.2 ± 2 nM; as for B14, 7.65 ± 0.33 nM.
Take B15: the affinity, expressed as Kd, was 62 ± 8 nM.
As to B16, binding was put at a Kd of 35 ± 8 nM.
B17 came in with a Kd of 39 ± 5 nM.
B18: the Kd turned out to be 75 ± 29 nM.
B19 yielded a Kd of 47 ± 8 nM.
For B20, the Kd was 62 ± 8 nM.
As for B21, the Kd came to 34 ± 4 nM.
For the molecule B22, the affinity, expressed as Kd, was 14.9 ± 0.6 nM.
B23 had an equilibrium dissociation constant (Kd) of 6.8 ± 0.4 nM.
As for B24, the figure is 47 ± 6 nM; as for B25, 32 ± 2.8 nM.
As for B26, the figure is 49 ± 4 nM; as for B27, 51.3 ± 3.5 nM.
